Test results as given in patent US20260274955A1 (JANUX THERAPEUTICS, published 2026).

Experiments:
[1] = target: T1, anti-CD28 Fab (SEQ ID NOs: 202, 203); assay: phage binding ELISA; biotinylated Fab on neutravidin plate;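 note: clonal phage supernatants added to Fab wells pretreated with CD28 antigen or with blocking buffer only, bound phage read out via HRP-linked anti-M13 antibody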
T1 construct: biotinylated and captured on neutravidin coated plates in the phage ELISA
Experimental: (§1) Clonal phage were harvested as crude supernatants and screened via standard ELISAs. […] Prior to the addition of clonal phage, wells were incubated with blocking buffer and CD28 antigen or blocking buffer alone. Without washing or aspirating, clonal phage supernatants were then added to the wells and incubated for a short time. Wells were then washed followed by detection of bound phage using a horse radish conjugated anti-M13 antibody.

[2] = target: T1, anti-CD28 Fab (SEQ ID NOs: 202, 203); assay: phage binding ELISA; Fab wells pre-incubated with CD28 antigen (competitor);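 note: clonal phage supernatants added to wells preincubated with CD28 antigen in blocking buffer versus blocking buffer alone, washed, bound phage read by HRP-conjugated anti-M13 antibody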
Experimental: as §1

T1 sequence (VH, as listed by the source, chain 1 of 2): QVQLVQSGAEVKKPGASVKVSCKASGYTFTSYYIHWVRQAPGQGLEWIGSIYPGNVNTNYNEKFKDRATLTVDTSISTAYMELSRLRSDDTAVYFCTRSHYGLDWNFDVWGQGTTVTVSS
T1 sequence (VL, as listed by the source, chain 2 of 2): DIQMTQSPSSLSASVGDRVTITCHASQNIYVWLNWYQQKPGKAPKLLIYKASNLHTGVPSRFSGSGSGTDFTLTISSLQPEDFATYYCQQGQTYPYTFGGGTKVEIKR

Question: How did the “Anti-CD28 Fab (SEQ ID NOs: 202, 203) signal” value [1] turn out when YCDGHLAEYMPKCL [Phage-320] was run?
Answer: Its value is 1.89.

Question: What about the “Anti-CD28 Fab signal in the presence of CD28” value (from here on “Anti-CD28 Fab signal”) [2] of the same binder?
Answer: The value was 0.07.

Question: With YCDGHLAEYMVKCL [Phage-375] as the binder, how does the “Anti-CD28 Fab (SEQ ID NOs: 202, 203) signal” value [1] read?
Answer: The value was 1.79.

Question: What about the “Anti-CD28 Fab signal” value [2] of the same binder?
Answer: Its value is 0.08.

Question: How did the “Anti-CD28 Fab (SEQ ID NOs: 202, 203) signal” value [1] turn out when YCDGHSALYMSKCL [Phage-333] was run?
Answer: The value was 1.87.

Question: And the “Anti-CD28 Fab signal” value [2]?
Answer: The value was 0.08.

Question: Which “Anti-CD28 Fab (SEQ ID NOs: 202, 203) signal” value [1] does the source give for YCDGHMPEYLAKCL [Phage-338] here?
Answer: The value was 1.86.

Question: What about the “Anti-CD28 Fab signal” value [2] of the same binder?
Answer: The value was 0.07.

Question: With YCDGHSWEYIQKCL [Phage-326] as the binder, how does the “Anti-CD28 Fab (SEQ ID NOs: 202, 203) signal” value [1] read?
Answer: Its value is 1.88.

Question: What about the “Anti-CD28 Fab signal” value [2] of the same binder?
Answer: The value was 0.07.

Question: What does the source list for YCDGHTGVYFYKCL [Phage-334]?
Answer: Anti-CD28 Fab (SEQ ID NOs: 202, 203) signal [1]: 1.87; Anti-CD28 Fab signal in the presence of CD28 [2]: 0.08

Question: YCEGHAAEYMSKCL [Phage-339] was tested. Which “Anti-CD28 Fab (SEQ ID NOs: 202, 203) signal” value [1] did it give?
Answer: The value was 1.86.

Question: What about the “Anti-CD28 Fab signal” value [2] of the same binder?
Answer: The value was 0.07.

Question: For YCEGHRPEYMAKCL [Phage-348], which “Anti-CD28 Fab (SEQ ID NOs: 202, 203) signal” value [1] is on record?
Answer: The value was 1.83.

Question: And the “Anti-CD28 Fab signal” value [2]?
Answer: The value was 0.07.

Question: Which “Anti-CD28 Fab (SEQ ID NOs: 202, 203) signal” value [1] does the source give for YCEGHMSEYMAKCL [Phage-325] here?
Answer: Its value is 1.88.

Question: And the “Anti-CD28 Fab signal” value [2]?
Answer: The value was 0.11.

Question: For YCEGHIPEYMAKCL [Phage-318], which “Anti-CD28 Fab (SEQ ID NOs: 202, 203) signal” value [1] is on record?
Answer: The value was 1.89.

Question: And the “Anti-CD28 Fab signal” value [2]?
Answer: Its value is 0.06.

Question: What does the source list for YCEGHRSEYMAKCL [Phage-336]?
Answer: Anti-CD28 Fab (SEQ ID NOs: 202, 203) signal [1]: 1.86; Anti-CD28 Fab signal in the presence of CD28 [2]: 0.06

Question: How did the “Anti-CD28 Fab (SEQ ID NOs: 202, 203) signal” value [1] turn out when YCEGHLSEYMSKCL [Phage-324] was run?
Answer: Its value is 1.88.

Question: And the “Anti-CD28 Fab signal” value [2]?
Answer: Its value is 0.09.

Question: For YCDGHIDEYLQKCL [Phage-322], which “Anti-CD28 Fab (SEQ ID NOs: 202, 203) signal” value [1] is on record?
Answer: The value was 1.88.

Question: And the “Anti-CD28 Fab signal” value [2]?
Answer: The value was 0.06.

Question: What does the source list for YCEGHVAEYMLKCL [Phage-323]?
Answer: Anti-CD28 Fab (SEQ ID NOs: 202, 203) signal [1]: 1.88; Anti-CD28 Fab signal in the presence of CD28 [2]: 0.05

Question: Which results are given for YCEGHSQEYMQKCL [Phage-344]?
Answer: Anti-CD28 Fab (SEQ ID NOs: 202, 203) signal [1]: 1.84; Anti-CD28 Fab signal in the presence of CD28 [2]: 0.05

Question: YCEGHSAEYMQKCL [Phage-443] was tested. Which “Anti-CD28 Fab (SEQ ID NOs: 202, 203) signal” value [1] did it give?
Answer: The value was 1.7.

Question: And the “Anti-CD28 Fab signal” value [2]?
Answer: Its value is 0.29.

Question: Which “Anti-CD28 Fab (SEQ ID NOs: 202, 203) signal” value [1] does the source give for YCAGHSSEYMWKCL [Phage-340] here?
Answer: The value was 1.85.

Question: What about the “Anti-CD28 Fab signal” value [2] of the same binder?
Answer: The value was 0.07.

Question: How did the “Anti-CD28 Fab (SEQ ID NOs: 202, 203) signal” value [1] turn out when YCDGHSPEYMPKCL [Phage-319] was run?
Answer: Its value is 1.89.

Question: What about the “Anti-CD28 Fab signal” value [2] of the same binder?
Answer: The value was 0.08.

Question: What does the source list for YCAGHAPEYMFKCM [Phage-347]?
Answer: Anti-CD28 Fab (SEQ ID NOs: 202, 203) signal [1]: 1.83; Anti-CD28 Fab signal in the presence of CD28 [2]: 0.06

Question: How did the “Anti-CD28 Fab (SEQ ID NOs: 202, 203) signal” value [1] turn out when YCDGHSPAYMAKCL [Phage-350] was run?
Answer: Its value is 1.83.

Question: What about the “Anti-CD28 Fab signal” value [2] of the same binder?
Answer: Its value is 0.1.

Question: Which “Anti-CD28 Fab (SEQ ID NOs: 202, 203) signal” value [1] does the source give for YCEGHSPLYMSKCL [Phage-331] here?
Answer: Its value is 1.87.

Question: And the “Anti-CD28 Fab signal” value [2]?
Answer: The value was 0.09.

Question: Which results are given for YCEGHTSEYMNKCL [Phage-335]?
Answer: Anti-CD28 Fab (SEQ ID NOs: 202, 203) signal [1]: 1.87; Anti-CD28 Fab signal in the presence of CD28 [2]: 0.06

Question: What does the source list for YCDGHSLQYLGKCL [Phage-343]?
Answer: Anti-CD28 Fab (SEQ ID NOs: 202, 203) signal [1]: 1.84; Anti-CD28 Fab signal in the presence of CD28 [2]: 0.09

Question: For YCEGHSWEYIGKCL [Phage-332], which “Anti-CD28 Fab (SEQ ID NOs: 202, 203) signal” value [1] is on record?
Answer: Its value is 1.87.

Question: And the “Anti-CD28 Fab signal” value [2]?
Answer: The value was 0.07.

Question: How did the “Anti-CD28 Fab (SEQ ID NOs: 202, 203) signal” value [1] turn out when YCDGHLAMYMDKCL [Phage-337] was run?
Answer: Its value is 1.86.

Question: What about the “Anti-CD28 Fab signal” value [2] of the same binder?
Answer: The value was 0.08.

Question: For YCEGHLQEYMEKCL [Phage-317], which “Anti-CD28 Fab (SEQ ID NOs: 202, 203) signal” value [1] is on record?
Answer: The value was 1.89.

Question: And the “Anti-CD28 Fab signal” value [2]?
Answer: Its value is 0.1.

Question: What does the source list for YCVGHLQEYMEKCL [Phage-389]?
Answer: Anti-CD28 Fab (SEQ ID NOs: 202, 203) signal [1]: 1.76; Anti-CD28 Fab signal in the presence of CD28 [2]: 0.06

Question: What does the source list for YCDGHSAAYIMKCL [Phage-342]?
Answer: Anti-CD28 Fab (SEQ ID NOs: 202, 203) signal [1]: 1.84; Anti-CD28 Fab signal in the presence of CD28 [2]: 0.09

Question: YCEGHLPEYMRKCL [Phage-349] was tested. Which “Anti-CD28 Fab (SEQ ID NOs: 202, 203) signal” value [1] did it give?
Answer: The value was 1.83.

Question: What about the “Anti-CD28 Fab signal” value [2] of the same binder?
Answer: Its value is 0.06.

Question: Which results are given for YCEGHLPAYMQKCL [Phage-377]?
Answer: Anti-CD28 Fab (SEQ ID NOs: 202, 203) signal [1]: 1.78; Anti-CD28 Fab signal in the presence of CD28 [2]: 0.07

Question: With YCEGHSPEYMRKCL [Phage-385] as the binder, how does the “Anti-CD28 Fab (SEQ ID NOs: 202, 203) signal” value [1] read?
Answer: The value was 1.77.

Question: What about the “Anti-CD28 Fab signal” value [2] of the same binder?
Answer: The value was 0.08.

Question: Which “Anti-CD28 Fab (SEQ ID NOs: 202, 203) signal” value [1] does the source give for YCEGHKPEYMQKCL [Phage-447] here?
Answer: The value was 1.69.

Question: What about the “Anti-CD28 Fab signal” value [2] of the same binder?
Answer: Its value is 0.06.

Question: With YCDGHSSEYIAKCL [Phage-383] as the binder, how does the “Anti-CD28 Fab (SEQ ID NOs: 202, 203) signal” value [1] read?
Answer: Its value is 1.77.

Question: And the “Anti-CD28 Fab signal” value [2]?
Answer: The value was 0.07.

Question: Which results are given for YCDGHSWAYMWKCL [Phage-341]?
Answer: Anti-CD28 Fab (SEQ ID NOs: 202, 203) signal [1]: 1.85; Anti-CD28 Fab signal in the presence of CD28 [2]: 0.13

Question: How did the “Anti-CD28 Fab (SEQ ID NOs: 202, 203) signal” value [1] turn out when YCAGHLPEYLSKCL [Phage-345] was run?
Answer: Its value is 1.84.

Question: What about the “Anti-CD28 Fab signal” value [2] of the same binder?
Answer: The value was 0.07.

Question: How did the “Anti-CD28 Fab (SEQ ID NOs: 202, 203) signal” value [1] turn out when YCEGHSLEYMAKCL [Phage-327] was run?
Answer: Its value is 1.88.

Question: What about the “Anti-CD28 Fab signal” value [2] of the same binder?
Answer: Its value is 0.08.

Question: With YCEGHLQIYMSKCL [Phage-346] as the binder, how does the “Anti-CD28 Fab (SEQ ID NOs: 202, 203) signal” value [1] read?
Answer: Its value is 1.84.

Question: What about the “Anti-CD28 Fab signal” value [2] of the same binder?
Answer: Its value is 0.14.

Question: What does the source list for YCEGHLPIYMSKCL [Phage-388]?
Answer: Anti-CD28 Fab (SEQ ID NOs: 202, 203) signal [1]: 1.76; Anti-CD28 Fab signal in the presence of CD28 [2]: 0.09
